Target: calmodulin (CaM) (UniProt P62157 1-149)
Assay: cell-based or functional assay

B1: FLAG-DAPK2 WT (enzyme)
chain: MFQASMRSPNMEPFKQQKVEDFYDIGEELGSGQFAIVKKCREKSTGLEYAAKFIKKRQSRASRRGVSREEIEREVSILRQVLHHNVITLHDVYENRTDVVLILELVSGGELFDFLAQKESLSEEEATSFIKQILDGVNYLHTKKIAHFDLKPENIMLLDKNIPIPHIKLIDFGLAHEIEDGVEFKNIFGTPEFVAPEIVNYEPLGLEADMWSIGVITYILLSGASPFLGDTKQETLANITAVSYDFDEEFFSQTSELAKDFIRKLLVKETRKRLTIQEALRHPWITPVDNQQAMVRRESVVNLENFRKQYVRRRWKLSFSIVSLCNHLTRSLMKKVHLRPDEDLRNCESDTEEDIARRKALHPRRRSSTS
- fold induction of the catalytic activity (MLC phosphorylation, in vitro kinase assay) upon addition of Ca2+/CaM against EGTA: 5.7 fold
